In data set [1] the test system is PAR. As to the kind of experiment: nitrocellulose saturation binding experiments. The settings on record: result in words. An excerpt:
Applicants thereafter repeated the experiments using both wild type and mutant AIFm peptides spanning only amino acids 567-592 instead of full length AIFm and obtained results consistent with those using full-length AIF. […] The double amino acid mutant Dm (corresponding to only amino acids 567-592 of AIF-Dm so as to consist of SEQ. ID NO. 16) bound PAR. […] Thus, it is preferred in embodiments of the invention when conducting genetic manipulations to convert at least three target basic amino acids in the PBM to hydrophobic amino acids.
The PAR polymer binding properties of the mutant Pbm-AIF was then measured using full-length recombinant His-WT-AIF and His tagged Pbm-AIF (“His-Pbm-AIF”) via a series of nitrocellulose saturation binding experiments. Similar experiments were also conducted for the shorter peptides Dm and Tm in comparison to WT. FIG. 10B through FIG. 10D comprise charts reporting data from these various experiments. With regard to the shorter peptides, Applicants determined that the binding affinity constant (“Kd”) and maximum binding capacity (“Bmax”) of these AIF mimetic peptides and the results are reported in the chart of FIG. 10B. […] FIG. 10D comprises a Scatchard plot (95% confidence interval) of the results.

Data set [2] is described as follows: NADH oxidase activity of AIF. The class given is biochemical. The settings on record: compared to His-WT-AIF. Here is the method:
Unless otherwise set forth herein, the determination of NADH Oxidase Activity and FAD binding of AIF in the various examples below was performed using the following materials and procedures. AIF's NADH oxidase activity was determined as previously described by M. Miramar et al. (J Biol Chem, 2001). In brief, the NADH oxidase activity was measured at room temperature in substrate solution containing 250 μM NADH in air-saturated 50 mM Tris-HCl, pH 8.0. The decrease in absorbance at OD340 nm was monitored right after the addition of recombinant His-tagged AIF into the substrate solution. In situ redox activity of recombinant His-tagged AIF was performed as previously described by J. Gagne et al. (Nucleic Acids Res, 2008). […] FAD binding to AIF was monitored at 13 μM concentration of His-tagged AIF by wave length scanning ranging from 250-800 nm using Beckman Coulter DU800 UV/Vis spectrophotometer.
Independent of its role in parthanatos, AIF has NADH (the reduced form of nicotinamide adenine dinucleotide) oxidase activity, binds to FAD (flavin adenine dinucleotide) and DNA, and causes nuclear condensation. To determine whether the triple amino acid mutation found in Pbm-AIF interferes with these properties, Applicants assessed the NADH oxidase activity, FAD-binding capacity, and DNA-binding capacity of full-length His-WT-AIF and His-Pbm-AIF. […]

Data set [3] in a line: FAD binding by spectrophotometric wave length scanning. The settings on record: His-Pbm-AIF versus His-WT-AIF. On the procedure:
Unless otherwise set forth herein, the determination of NADH Oxidase Activity and FAD binding of AIF in the various examples below was performed using the following materials and procedures. AIF's NADH oxidase activity was determined as previously described by M. Miramar et al. (J Biol Chem, 2001). In brief, the NADH oxidase activity was measured at room temperature in substrate solution containing 250 μM NADH in air-saturated 50 mM Tris-HCl, pH 8.0. The decrease in absorbance at OD340 nm was monitored right after the addition of recombinant His-tagged AIF into the substrate solution. In situ redox activity of recombinant His-tagged AIF was performed as previously described by J. Gagne et al. (Nucleic Acids Res, 2008). The AIF protein was separated on a 10% native gel and then the gel was briefly washed in distilled water. The gel was equilibrated in 2,2′-Di-p-nitrophenyl-5-5′-diphenyl-3,3′ (3-3′-dimethoxy-4-4′difenilen)tetrazolium chloride (“NBT”) solution for 20 minutes in the dark followed by the addition of 1 mM NADH to NBT solution to reduce NBT. FAD binding to AIF was monitored at 13 μM concentration of His-tagged AIF by wave length scanning ranging from 250-800 nm using Beckman Coulter DU800 UV/Vis spectrophotometer.
FAD binding of His-WT-AIF and His-Pbm-AIF was determined by spectrophotometric wave length scanning of purified proteins. […]

Data set [4] has as its system DNA. As to the kind of experiment: DNA retardation assay. The format is binding. The conditions noted are these: DNA (200 ng), 30 minutes. On the procedure:
AIF binding-mediated DNA mobility retardation was performed as described by H. Cande et al. (Nat Struct Biol, 2002). Recombinant His-tagged AIF (10 μg or 25 μg) was incubated with 1 kb DNA molecular weight marker (obtained from Fermentas) for 30 minutes at room temperature and loaded on 2.5% agarose gel prestained with ethidium bromide (1 μg/ml). Mobility shift was visualized under the Alpha Innotech UV illuminator.
Further, a DNA retardation assay of His-WT-AIF and His-Pbm-AIF was conducted by incubating both with DNA (200 ng) for 30 minutes, using BSA as a negative control.

Data set [5] relates to PAR. The experiment in a line: co-immunoprecipitation with PAR in HeLa cells. The class given is cell-based. Here is the method: The following experiment was performed to confirm whether AIF in fact binds to PAR in intact cells. Applicants exposed HeLa cells stably transduced with lentivirus C-terminal Flag-tagged mouse wild type AIF (WT-AIF-Flag) to MNNG, a DNA alkylating agent that activates PARP-1 and kills cells primarily through parthanatos. […] FIG. 2A comprises two side by side black and white photos of representative gels obtained by Applicants, showing the impact of MNNG upon these HeLa cells (left photo being HeLa cells without MNNG, and right photo being HeLa cells 2 hours after MNNG treatment at 50 μM for 15 min). […] FIG. 2B is a chart reporting the data regarding the relative intensity of the interaction pre and post MNNG for these experiments (*** indicates p<0.001).

Data set [6] has as its system Hq mouse cortical neuronal cultures. As to the kind of experiment: AIF translocation to the nucleus in Hq cortical neurons. The format is cell-based. On the procedure: Unless otherwise set forth herein, immunocytochemistry, immunohistochemistry and confocal microscopy as referenced in the examples entailed the following materials and procedures. […] AIF was visualized by 2 μg/ml mouse anti-Flag/Cyt AffiniPure Donkey Anti-Mouse IgG or rabbit anti-AIF/Cy3 AffiniPure Donkey Anti-Rabbit IgG. Immunohistochemistry was performed using the antibody against Flag. Immunofluorescence analysis thereafter was carried out by using a LSM510 confocal laser scanning microscope (obtained from Carl Zeiss Microlmaging) as described by H. Wang et al. (J. Neurosci, 2004).
Again, AIF translocation to the nucleus was monitored two hours after NMDA (500 μM, 5 minutes) treatment sufficient to initiate parthanatos in wild-type cells.

Data set [7] concerns HeLa cells. The experiment in a line: AIF nuclear translocation in HeLa cells after MNNG. The conditions noted are these: MNNG 50 μM for 15 minutes, confocal image analysis. The class given is cell-based. Here is the method:
Unless otherwise set forth herein, immunocytochemistry, immunohistochemistry and confocal microscopy as referenced in the examples entailed the following materials and procedures. For immunocytochemistry, cells were fixed 2 hours after treatment with 4% paraformaldehyde, permeabilized with 0.05% Triton X-100, and blocked with 3% bovine serum albumin in PBS. AIF was visualized by 2 μg/ml mouse anti-Flag/Cyt AffiniPure Donkey Anti-Mouse IgG or rabbit anti-AIF/Cy3 AffiniPure Donkey Anti-Rabbit IgG. Immunohistochemistry was performed using the antibody against Flag. Immunofluorescence analysis thereafter was carried out by using a LSM510 confocal laser scanning microscope (obtained from Carl Zeiss Microlmaging) as described by H. Wang et al. (J. Neurosci, 2004).

In data set [8] the test system is Hq MEFs. The experiment in a line: MNNG cytotoxicity in Hq MEFs. The format is cell-based, mouse. The settings on record: Hq MEFs, 24 hours after MNNG 500 μM for 15 min. On the procedure:
Further, the effect WT-AIF-Flag or Pbm-AIF-Flag on Hq MEF cell viability was determined 24 hours after MNNG (500 μM for 15 min) cytotoxicity with and without zVAD (100 μM), and the results of three trials is reported in FIG. 17B.

Data set [9] concerns Hq cortical neurons. The experiment in a line: NMDA excitotoxicity in Hq cortical neurons. The class given is cell-based, mouse. The settings on record: lentivirus-transduced Hq cortical neurons, NMDA 500 μM for 5 min, 24, 36, 48 hours. Here is the method: HQ cortical neuron cells were transduced with lentivirus carrying WT-AIF-Flag or Pbm-AIF-Flag. Non-transduced neurons and GFP-lentivirus infected cells were used as negative controls. […] In those photos, blue indicates Hoechst 33342 staining and red indicates propidium iodide staining. […] The cytotoxicity in these Hq cortical neurons was measured at 24 hours, 36 hours, and 48 hours after NMDA (500 μM for 5 min) treatment, and the data for this is reported in the graph of FIG. 18B.

Data set [10] concerns Hq mice. The experiment in a line: NMDA excitotoxicity in hippocampal CA1 region of Hq mice. The class given is in vivo, mouse. The conditions noted are these: AAV2 in CA1, 60 hours after NMDA. On the procedure:
Seven days following virus injection, Applicants injected NMDA into the right CA1 region and saline into the left CA1 region, and then assessed CA1 lesion volume 60 hours later. […] FIG. 20B is an array of six representative Nissl staining photos taken 60 hours post NMDA injection, while FIG. 20C is a graph of the experimental data obtained for lesion volume percentages.

In data set [11] the test system is Hq mice. The experiment in a line: NMDA excitotoxicity in striatum of Hq mice.
Description: 1 μl Lentivirus (5×1010 T.U./ml) carrying WT-AIF-Flag, Pbm-AIF-Flag, or GFP was injected into striatum on both sides of the brain (rostral, 0.4 mm; lateral+/−1.7 mm; ventral 3.5 mm from bregma), and 1 μl AAV2 (1×1013 T.U./ml) carrying WT-AIF-Flag, Pbm-AIF-Flag or GFP was injected into CA1 in hippocampi on both sides of the brain (posterior, 2.0 mm; lateral+/−1.5 mm; ventral 1.5 mm from bregma) using a stereotactic frame (Kopf) (0.02 ml/min). The needle was left in place for an additional 8 minutes after injection. One week after the first injection, 20 nmol NMDA or normal saline in 0.8 μl was injected into the right and left striatum (0.02 μl/min), respectively. The needle was left in place for an additional 8 minutes after injection. Lesion volumes were assessed at 48 hours, 60 hours, or 168 hours after NMDA administration. At the indicated time point after the second injection, the mice were deeply anesthetized, and then perfused with saline and 4% paraformaldehyde. After postfixation and freezing in 20% glycerol-PBS, brain sections (30 μm) were obtained for Nissl staining and immunohistochemistry analysis.
Applicants next assessed whether replacement of WT-AIF-Flag or Pbm-AIF-Flag through lentiviral transduction would restore the sensitivity of Hq mice to NMDA excitotoxicity. […]
Data set [12] concerns mitochondria of HeLa cells. As to the kind of experiment: in vitro AIF release from mitochondria of HeLa cells. The conditions noted are these: purified PAR, transiently transfected HeLa cells.
Description: (§1) Unless otherwise set forth herein, mitochondria isolation and in vitro AIF release assays as referenced in the examples below were performed using the following materials and procedures. Mitochondria were prepared from HeLa cells and cortical neurons as follows by harvesting cells, re-suspending them in 2 ml MIB buffer (10 mM HEPES, pH 7.4, 300 mM sucrose, 1 mM EGTA), and homogenizing by 60 strokes with B type Dounce homogenizer. Nuclei were pelleted at 750×g for 5 minutes and mitochondria were spun down at 3,000×g for 10 minutes. Isolated mitochondria were dissolved in a minimum volume of sucrose buffer (10 mM HEPES, pH 7.4, 300 mM sucrose) and protein concentration was adjusted to 2 mg/ml. […] In vitro AIF release was carried out at room temperature for 30 minutes in assay buffer (20 mM HEPES, pH 7.4, 125 mM KCl, 2 mM K2HPO4, 4 mM MgCl2, 5 mM succinate, 2 mM rotenone, 3 μM ATP and 1 μM ADP) in the presence of 100 nM PAR and 1 mg/ml isolated mitochondria. […]
(§2) Next, Applicants used Hq cortical neurons transduced with WT-AIF-Flag or Pbm-AIF-Flag lentiviruses to determine whether PAR plays a direct role in mitochondrial AIF release. […] Three days after lentivirus infection, mitochondria were isolated and exposed to purified PAR to elicit in vitro AIF release by incubation with PAR for 30 minutes, and the levels of AIF were determined in the mitochondria and in the supernatant.
Data set [13] concerns PAR. As to the kind of experiment: co-immunoprecipitation with PAR in Hq cortical neurons.
Description: For co-immunoprecipitation, the post-nuclear cell extracts, which is the fraction prepared from whole cell lysates after removing nuclear proteins, were isolated in hypotonic buffer as previously described by S. Andrabi et al., and then incubated overnight with an antibody against PAR in the presence of protein A/G Sepharose (obtained from Santa Cruz Biotechnology, of Santa Cruz, Calif.), followed by immunoblot analysis with mouse anti-Flag antibody (obtained from Sigma). The proteins were separated on denaturing polyacrylamide gel electrophoresis (SDS-PAGE) and transferred to nitrocellulose membrane. […] After washing, the immune complexes were detected by the SuperSignal West Pico Chemiluminescent Substrate. The integrity of the nuclear and postnuclear subcellular fractions was determined by monitoring histone and MnSOD immunoreactivity, respectively.
To determine whether Pbm-AIF fails to bind to PAR in cultured cortical neurons, neuronal cultures were transduced by lentivirus with WT-AIF-Flag or Flag-tagged Pbm-AIF (“Pbm-AIF-Flag”). […] AIF was translocation to the nucleus for each neuron culture was monitored 2 hours after administration of NMDA (500 μM NMDA for 5 minutes). […]
The subject of data set [14] is mitochondria isolated from cortical neurons. As to the kind of experiment: in vitro AIF release from mitochondria of Hq cortical neurons. The settings on record: incubation with purified PAR for 30 minutes.
Description: as §1, §2

Entries after “also recorded” stand apart in the source; their conditions may differ. Where only a bound is given, the exact number is not on record here.

B1: His-Pbm-AIF: His tagged Pbm-AIF (protein, UniProt Q9Z0X1 1-612, looked up, variant R588A K589A K592A)
chain: MFRCGGLAGAFKQKLVPLVRTVYVQRPKQRNRLPGNLFQQWRVPLELQMARQMASSGSSGGKMDNSVLVLIVGLSTIGAGAYAYKTIKEDQKRYNERVMGLGLSPEEKQRRAIASATEGGSVPQIRAPSHVPFLLIGGGTAAFAAARSIRARDPGARVLIVSEDPELPYMRPPLSKELWFSDDPNVTKTLQFRQWNGKERSIYFQPPSFYVSAQDLPNIENGGVAVLTGKKVVHLDVRGNMVKLNDGSQITFEKCLIATGGTPRSLSAIDRAGAEVKSRTTLFRKIGDFRALEKISREVKSITVIGGGFLGSELACALGRKSQASGIEVIQLFPEKGNMGKILPQYLSNWTMEKVKREGVKVMPNAIVQSVGVSGGRLLIKLKDGRKVETDHIVTAVGLEPNVELAKTGGLEIDSDFGGFRVNAELQARSNIWVAGDAACFYDIKLGRRRVEHHDHAVVSGRLAGENMTGAAKPYWHQSMFWSDLGPDVGYEAIGLVDSSLPTVGVFAKATAQDNPKSATEQSGTGIRSESETESEASEITIPPSAPAVPQVPVEGEDYGKGVIFYLRDKVVVGIVLWNVFNRMPIAAAIIADGEQHEDLNEVAKLFNIHED
modifications: full-length His tag
For B1, in data set [1], the “PAR binding in saturation binding experiments” value is “much less (and virtually linear) binding”. Also, in [2], the NADH oxidase activity result is recorded as “no significant change in NADH oxidase activity”. Further, the FAD binding properties result in [3] is reported as “no significant difference”. Further, the DNA-binding properties result in [4] is “comparable”.

B2: WT-AIF-Flag: C-terminal Flag-tagged mouse wild type AIF, delivered by lentivirus, AAV2 or transfection (protein, UniProt Q9Z0X1 1-612, looked up)
chain: MFRCGGLAGAFKQKLVPLVRTVYVQRPKQRNRLPGNLFQQWRVPLELQMARQMASSGSSGGKMDNSVLVLIVGLSTIGAGAYAYKTIKEDQKRYNERVMGLGLSPEEKQRRAIASATEGGSVPQIRAPSHVPFLLIGGGTAAFAAARSIRARDPGARVLIVSEDPELPYMRPPLSKELWFSDDPNVTKTLQFRQWNGKERSIYFQPPSFYVSAQDLPNIENGGVAVLTGKKVVHLDVRGNMVKLNDGSQITFEKCLIATGGTPRSLSAIDRAGAEVKSRTTLFRKIGDFRALEKISREVKSITVIGGGFLGSELACALGRKSQASGIEVIQLFPEKGNMGKILPQYLSNWTMEKVKREGVKVMPNAIVQSVGVSGGRLLIKLKDGRKVETDHIVTAVGLEPNVELAKTGGLEIDSDFGGFRVNAELQARSNIWVAGDAACFYDIKLGRRRVEHHDHAVVSGRLAGENMTGAAKPYWHQSMFWSDLGPDVGYEAIGLVDSSLPTVGVFAKATAQDNPKSATEQSGTGIRSESETESEASEITIPPSAPAVPQVPVEGEDYGKGVIFYLRDKVVVGIVLWNVFNRMPIARKIIKDGEQHEDLNEVAKLFNIHED
modifications: full-length C-terminal Flag tag
notes: C-terminal Flag-tagged mouse wild type AIF, delivered by lentivirus, AAV2 or transfection
B2: the “change of interaction with PAR following MNNG treatment” value in [5] (2 hours after MNNG 50 μM for 15 min) is “significantly increased”. The “co-immunoprecipitation with PAR” value in [5] (postnuclear fractions, non-MNNG- and MNNG-treated HeLa cells) is listed as “co-immunoprecipitated with PAR in resting cells”; in data set [13] (postnuclear fractions, non-NMDA- and NMDA-treated cultures), “pulled down”. For the same molecule, the “translocation to the nucleus after staurosporine” value in data set [6] (100 nM staurosporine, 24 hours) is reported as “translocate from the mitochondria to the nucleus”. In addition, in data set [6] (two hours after NMDA (500 μM, 5 minutes), immunoblot of fractions or confocal image analysis), the “translocation to the nucleus after NMDA” value is reported as “translocated to the nucleus; also recorded: observed in the nucleus”. The “nuclear translocation after MNNG” value in [7] is given as “translocated to the nucleus 4 hours following MNNG treatment”. In addition, the “effect on MNNG-induced cell death” value in [8] is given as “restored their susceptibility to MNNG toxicity”. For the same molecule, in data set [9], the “effect on susceptibility to NMDA excitotoxicity” value is given as “restored Hq cortical neuron susceptibility to NMDA excitotoxicity”. Moreover, the CA1 lesion volume result in data set [10] is recorded as “large lesion volume”. For the same molecule, the “sensitivity to NMDA excitotoxicity (lesion volume)” value in [11] (lentivirus in striatum, NMDA 20 nmol, 48 hours or 60 hours) is reported as “restored sensitivity to NMDA excitotoxicity”. Besides, the “survival after the NMDA injection” value in data set [11] (lentivirus-injected Hq mice, WT-AIF-Flag with one exception) is below 168 h. For the same molecule, the “PAR-induced release from mitochondria” value in data set [12] and in data set [14] was “induced the release” throughout. The “change of interaction with PAR following NMDA treatment” value in data set [13] (2 hours after 500 μM NMDA for 5 minutes) was “significantly increased”.
